Assays:
[1] = target: E-cadherin extracellular domain L175D cis-binding mutant, hexahistidine-tagged (human) (UniProt P12830); assay: single-molecule tracking cluster size distributions + kinetic Monte Carlo simulation; effective rate constants worked out from kMC on/off rates that were optimised so that simulated cluster size distributions match the experimental ones (1,250 E-cad/µm^2 in the simulation)
[2] = target: E-cadherin extracellular domain L175D cis-binding mutant, hexahistidine-tagged (human) (UniProt P12830); assay: single-molecule tracking (TIRFM), cluster size from trajectory friction factors; AF555 labelled E-cad on DOPC supported lipid bilayers with 5% DGS-NTA(Ni); high, intermediate and low surface coverage (~39,000, ~1,000, ~0.6 E-cad/µm^2); raw friction factor data adapted from Thompson et al., 2019 and analysed here
[3] = target: wild-type E-cadherin extracellular domain, hexahistidine-tagged (human) (UniProt P12830); assay: single-molecule tracking cluster size distributions + kinetic Monte Carlo simulation; effective rate constants worked out from kMC on/off rates that were optimised so that simulated cluster size distributions match the experimental ones (1,250 E-cad/µm^2 in the simulation)
[4] = target: wild-type E-cadherin extracellular domain, hexahistidine-tagged (human) (UniProt P12830); assay: single-molecule tracking (TIRFM), cluster size from trajectory friction factors; AF555 labelled E-cad on DOPC supported lipid bilayers with 5% DGS-NTA(Ni); high, intermediate and low surface coverage (~39,000, ~1,000, ~0.6 E-cad/µm^2); raw friction factor data adapted from Thompson et al., 2019 and analysed here
[5] = target: wild-type E-cadherin extracellular domain, hexahistidine-tagged (human) (UniProt P12830); assay: FRET or BRET; single-molecule intermolecular FRET by TIRF microscopy; intermediate-coverage wild-type (~1,000 E-cad/µm^2; 3 × 10^-7 M total in solution); AF555 donor, AF647 acceptor and unlabelled E-cad tethered by His6 to a DOPC/DGS-NTA(Ni) supported lipid bilayer; same buffer, pH 8; three-state Markov model
[6] = target: wild-type E-cadherin extracellular domain, hexahistidine-tagged (human) (UniProt P12830); assay: FRET or BRET; single-molecule intermolecular FRET by TIRF microscopy; high-coverage wild-type (~1,400 E-cad/µm^2; 5 × 10^-7 M total in solution); AF555 donor, AF647 acceptor and unlabelled E-cad tethered by His6 to a DOPC/DGS-NTA(Ni) 19:1 supported lipid bilayer; 25 mM HEPES, 100 mM NaCl, 10 mM KCl, 2 mM CaCl2, 0.05 mM NiSO4, pH 8; average dissociation rate constant from a three-state Markov model
[7] = target: E-cadherin extracellular domain L175D cis-binding mutant, hexahistidine-tagged (human) (UniProt P12830); assay: FRET or BRET; single-molecule intermolecular FRET by TIRF microscopy; high-coverage mutant (~1,300 E-cad/µm^2; 5 × 10^-7 M total in solution); AF555 labelled wild-type donor with AF647 labelled mutant acceptor and unlabelled mutant, tethered by His6 to a DOPC/DGS-NTA(Ni) supported lipid bilayer; same buffer, pH 8; three-state Markov model

## E-cadherin extracellular domain L175D cis-binding mutant, hexahistidine-tagged (from UniProt P12830 155-709) (domain or fragment)
[1]
  effective koff, nonspecific cis-interaction: 1000 s⁻¹
  effective kon, nonspecific cis-interaction: 1.1e+06 M⁻¹ s⁻¹
[2]
  characteristic cluster size: 29 E-cad
  cluster size (E-cad per cluster): 40 E-cad

## wild-type E-cadherin extracellular domain, hexahistidine-tagged (from UniProt P12830 155-709) (domain or fragment)
[3]
  binding affinity, specific cis-interaction: 10 µM
  effective koff, specific cis-interaction: 100 s⁻¹
  effective kon, specific cis-interaction: 2.7e+06 M⁻¹ s⁻¹
[4]
  characteristic cluster size: 33 E-cad
  cluster size (E-cad per cluster): 40 to 160 E-cad
[5]
  koff: 3.17 s⁻¹
[6]
  koff: 1.04 s⁻¹
[7]
  koff: 1.4 s⁻¹
